Experiment [1] concerns the target ΔCRD2-TNFR2 protein (with CRD2 deletion), on CHO-S cells (human) (UniProt P20333). Put plainly: FACS on CHO-S cells with ΔCRD2-TNFR2, secondary antibody alone (background control).
For experiment [2], the target named is ΔCRD1-TNFR2 protein (with CRD1 deletion), on CHO-S cells (human) (UniProt P20333). Put plainly: FACS on CHO-S cells with ΔCRD1-TNFR2, secondary antibody alone (background control).
Experiment [3] has as its target ΔCRD3-TNFR2 protein (with CRD3 deletion), on CHO-S cells (human) (UniProt P20333). Kind of experiment: FACS on CHO-S cells with ΔCRD3-TNFR2, secondary antibody alone (background control).
In experiment [4] the target is ΔCRD4-TNFR2 protein (with CRD4 deletion), on CHO-S cells (human) (UniProt P20333). Put plainly: FACS on CHO-S cells with ΔCRD4-TNFR2, secondary antibody alone (background control).

The source of these data is patent publication US20250019454A1.

ΔCRD4-TNFR2 protein (with CRD4 deletion), on CHO-S cells (human), sequence (P20333 other isoform, or with tags, fused parts or gaps mutant): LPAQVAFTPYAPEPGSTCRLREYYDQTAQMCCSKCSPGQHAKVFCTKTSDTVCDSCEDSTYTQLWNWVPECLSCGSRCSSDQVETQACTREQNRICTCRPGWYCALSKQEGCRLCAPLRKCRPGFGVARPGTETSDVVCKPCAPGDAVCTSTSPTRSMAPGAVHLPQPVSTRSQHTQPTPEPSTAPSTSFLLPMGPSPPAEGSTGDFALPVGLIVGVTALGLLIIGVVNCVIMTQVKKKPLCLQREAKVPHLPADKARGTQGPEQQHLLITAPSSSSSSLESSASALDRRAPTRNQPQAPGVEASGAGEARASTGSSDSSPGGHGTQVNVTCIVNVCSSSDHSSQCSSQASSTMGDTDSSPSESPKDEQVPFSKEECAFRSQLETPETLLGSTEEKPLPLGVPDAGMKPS
ΔCRD2-TNFR2 protein (with CRD2 deletion), on CHO-S cells (human), sequence (P20333 other isoform, or with tags, fused parts or gaps mutant): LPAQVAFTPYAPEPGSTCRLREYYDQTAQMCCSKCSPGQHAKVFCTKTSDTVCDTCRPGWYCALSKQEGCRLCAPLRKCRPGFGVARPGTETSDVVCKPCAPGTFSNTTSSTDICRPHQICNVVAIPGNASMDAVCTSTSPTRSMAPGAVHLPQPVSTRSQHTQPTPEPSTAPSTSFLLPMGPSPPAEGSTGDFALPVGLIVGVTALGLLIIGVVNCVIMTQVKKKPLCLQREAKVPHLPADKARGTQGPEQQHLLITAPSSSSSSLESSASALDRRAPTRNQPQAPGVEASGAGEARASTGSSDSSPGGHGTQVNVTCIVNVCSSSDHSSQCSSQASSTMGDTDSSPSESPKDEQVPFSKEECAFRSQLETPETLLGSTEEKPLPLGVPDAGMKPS
ΔCRD1-TNFR2 protein (with CRD1 deletion), on CHO-S cells (human), sequence (P20333 other isoform, or with tags, fused parts or gaps mutant): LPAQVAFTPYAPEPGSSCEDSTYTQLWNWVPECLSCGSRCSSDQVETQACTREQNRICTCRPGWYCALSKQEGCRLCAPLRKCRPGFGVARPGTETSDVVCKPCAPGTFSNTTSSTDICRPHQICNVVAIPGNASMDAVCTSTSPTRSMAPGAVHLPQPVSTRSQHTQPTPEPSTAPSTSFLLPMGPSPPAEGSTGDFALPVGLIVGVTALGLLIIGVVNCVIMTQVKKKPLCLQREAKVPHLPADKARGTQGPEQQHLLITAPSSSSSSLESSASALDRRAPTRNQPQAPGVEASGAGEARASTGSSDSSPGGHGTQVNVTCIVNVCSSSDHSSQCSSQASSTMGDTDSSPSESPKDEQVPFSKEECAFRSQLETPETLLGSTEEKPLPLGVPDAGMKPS
ΔCRD3-TNFR2 protein (with CRD3 deletion), on CHO-S cells (human), sequence (P20333 other isoform, or with tags, fused parts or gaps mutant): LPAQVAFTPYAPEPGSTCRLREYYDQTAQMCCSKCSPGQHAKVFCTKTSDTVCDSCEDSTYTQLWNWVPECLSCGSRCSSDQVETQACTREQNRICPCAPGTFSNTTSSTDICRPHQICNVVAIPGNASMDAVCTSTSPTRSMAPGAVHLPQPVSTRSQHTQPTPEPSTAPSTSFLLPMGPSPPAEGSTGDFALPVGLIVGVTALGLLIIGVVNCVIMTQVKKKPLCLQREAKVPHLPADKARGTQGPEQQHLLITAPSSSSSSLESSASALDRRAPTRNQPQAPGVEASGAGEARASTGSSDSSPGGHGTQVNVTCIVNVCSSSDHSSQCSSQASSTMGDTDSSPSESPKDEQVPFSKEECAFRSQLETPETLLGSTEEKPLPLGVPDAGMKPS

Take “Secondary antibody (Alexa Fluor 647 AffiniPure F(ab')2 Fragment Goat Anti-Human IgG, Fcγ fragment specific, Jackson ImmunoResearch)”: the positive rate of binding (% of cells) in experiment [1] came out at 7.33%; in experiment [2], 10.2%; in experiment [3] it was 0.62%; in experiment [4], 1.02%.
